From patent US20260015399A1 (Boehringer Ingelheim, published 2026) come the findings set out here.

*1 amine or outer side, *2 acyl side, *3 side chain or, on linkers, in order; H or OH if unused. Side-chain parts run from the residue outwards. The star is where a group is joined. C18 diacid = O=C(O)CCCCCCCCCCCCCCCCC(=O)*; γGlu = O=C(O)[C@H](CCC(=O)[*:2])N[*:1]; Isovaleryl = CC(C)CC(=O)*; Ahx = NCCCCCC(=O)O

The assay deals with T1, human NPY2 receptor (human, UniProt P49146 1-381).
T1 construct: whole, on cells; also called hNPY2-R; hNPY2R
T1 sequence (looked up): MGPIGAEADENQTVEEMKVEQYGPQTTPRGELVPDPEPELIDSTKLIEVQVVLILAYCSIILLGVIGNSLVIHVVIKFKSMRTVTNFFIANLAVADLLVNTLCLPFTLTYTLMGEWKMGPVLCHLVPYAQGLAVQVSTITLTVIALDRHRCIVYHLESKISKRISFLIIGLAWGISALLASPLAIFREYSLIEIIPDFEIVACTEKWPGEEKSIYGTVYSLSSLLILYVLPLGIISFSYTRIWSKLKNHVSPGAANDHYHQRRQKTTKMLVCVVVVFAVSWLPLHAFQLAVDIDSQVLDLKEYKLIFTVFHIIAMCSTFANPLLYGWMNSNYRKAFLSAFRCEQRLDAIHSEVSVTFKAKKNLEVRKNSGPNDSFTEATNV
Put plainly: RLB: displacement of 125I-PYY(1-36) from hNPY2R membranes.

B1: Compound 142 (peptide)
peptide: Isovaleryl-APEK([Ahx-γGlu-C18 diacid])PEEDALPEEIQRYYVSLRHYYNWLTRQRY-NH2
SMILES: CC[C@H](C)[C@H](NC(=O)[C@H](CCC(=O)O)NC(=O)[C@H](CCC(=O)O)NC(=O)[C@@H]1CCCN1C(=O)[C@H](CC(C)C)NC(=O)[C@H](C)NC(=O)[C@H](CC(=O)O)NC(=O)[C@H](CCC(=O)O)NC(=O)[C@H](CCC(=O)O)NC(=O)[C@@H]1CCCN1C(=O)[C@H](CCCCNC(=O)CCCCCNC(=O)CC[C@H](NC(=O)CCCCCCCCCCCCCCCCC(=O)O)C(=O)O)NC(=O)[C@H](CCC(=O)O)NC(=O)[C@@H]1CCCN1C(=O)[C@H](C)NC(=O)CC(C)C)C(=O)N[C@@H](CCC(N)=O)C(=O)N[C@@H](CCCNC(=N)N)C(=O)N[C@@H](Cc1ccc(O)cc1)C(=O)N[C@@H](Cc1ccc(O)cc1)C(=O)N[C@H](C(=O)N[C@@H](CO)C(=O)N[C@@H](CC(C)C)C(=O)N[C@@H](CCCNC(=N)N)C(=O)N[C@@H](Cc1c[nH]cn1)C(=O)N[C@@H](Cc1ccc(O)cc1)C(=O)N[C@@H](Cc1ccc(O)cc1)C(=O)N[C@@H](CC(N)=O)C(=O)N[C@@H](Cc1c[nH]c2ccccc12)C(=O)N[C@@H](CC(C)C)C(=O)N[C@H](C(=O)N[C@@H](CCCNC(=N)N)C(=O)N[C@@H](CCC(N)=O)C(=O)N[C@@H](CCCNC(=N)N)C(=O)N[C@@H](Cc1ccc(O)cc1)C(N)=O)[C@@H](C)O)C(C)C
Molecule B1 displayed a Ki of 3.97 nM.

B2: Compound 143 (peptide)
peptide: Isovaleryl-APEK([Ahx-γGlu-C18 diacid])PEEDSTPEELQRYYVSLRHYYNWLTRQRY-NH2
SMILES: CC(C)CC(=O)N[C@@H](C)C(=O)N1CCC[C@H]1C(=O)N[C@@H](CCC(=O)O)C(=O)N[C@@H](CCCCNC(=O)CCCCCNC(=O)CC[C@H](NC(=O)CCCCCCCCCCCCCCCCC(=O)O)C(=O)O)C(=O)N1CCC[C@H]1C(=O)N[C@@H](CCC(=O)O)C(=O)N[C@@H](CCC(=O)O)C(=O)N[C@@H](CC(=O)O)C(=O)N[C@@H](CO)C(=O)N[C@H](C(=O)N1CCC[C@H]1C(=O)N[C@@H](CCC(=O)O)C(=O)N[C@@H](CCC(=O)O)C(=O)N[C@@H](CC(C)C)C(=O)N[C@@H](CCC(N)=O)C(=O)N[C@@H](CCCNC(=N)N)C(=O)N[C@@H](Cc1ccc(O)cc1)C(=O)N[C@@H](Cc1ccc(O)cc1)C(=O)N[C@H](C(=O)N[C@@H](CO)C(=O)N[C@@H](CC(C)C)C(=O)N[C@@H](CCCNC(=N)N)C(=O)N[C@@H](Cc1c[nH]cn1)C(=O)N[C@@H](Cc1ccc(O)cc1)C(=O)N[C@@H](Cc1ccc(O)cc1)C(=O)N[C@@H](CC(N)=O)C(=O)N[C@@H](Cc1c[nH]c2ccccc12)C(=O)N[C@@H](CC(C)C)C(=O)N[C@H](C(=O)N[C@@H](CCCNC(=N)N)C(=O)N[C@@H](CCC(N)=O)C(=O)N[C@@H](CCCNC(=N)N)C(=O)N[C@@H](Cc1ccc(O)cc1)C(N)=O)[C@@H](C)O)C(C)C)[C@@H](C)O
As to B2, the Ki was 3.42 nM.

By Ki is commonly meant a measure of affinity in units of concentration, obtained from inhibition or displacement.
